Measured values taken from PMC9352680, “A comprehensive thermodynamic model for RNA binding by the Saccharomyces cerevisiae Pumilio protein PUF4”.

T1: PUF4 RNA-binding domain (Saccharomyces cerevisiae, UniProt P25339 537-888)
T1 sequence: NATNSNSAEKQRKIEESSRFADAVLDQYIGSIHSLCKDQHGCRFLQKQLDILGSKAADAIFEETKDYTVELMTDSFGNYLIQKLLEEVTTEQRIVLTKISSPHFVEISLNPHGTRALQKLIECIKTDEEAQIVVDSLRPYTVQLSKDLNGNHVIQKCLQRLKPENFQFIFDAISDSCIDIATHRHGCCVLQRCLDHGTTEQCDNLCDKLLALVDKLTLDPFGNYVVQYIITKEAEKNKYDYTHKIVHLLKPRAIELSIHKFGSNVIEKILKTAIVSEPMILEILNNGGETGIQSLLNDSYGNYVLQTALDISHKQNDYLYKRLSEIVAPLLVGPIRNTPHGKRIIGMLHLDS

B1: Ic_S1_P5E.1_K5.1_C5.1_H5.1_A5.1_[T5C]_[A7T]_F5.1_[T8C]_[T9C]_[A10C]_T5.1 (ssRNA)
RNA: UCUCUUUGUACUUCCCUCUCUU
B2: Ic_S1_P5E.1_K5.1_C5.1_H5.1_A5.1_[T5G]_[T6C]_[A7C]_F5.1_[A10T]_T5.1 (ssRNA)
RNA: UCUCUUUGUAGCCUUUUCUCUU
B3: Ic_S1_P5E.1_K5.1_C5.1_H5.1_A5.1_[T5C]_[A7C]_F5.1_[T8C]_[T9C]_[A10T]_T5.1 (ssRNA)
RNA: UCUCUUUGUACUCCCUUCUCUU
B4: Ic_S1_P5E.1_K5.1_C5.1_H5.1_A5.1_[T6G]_[A7G]_F5.1_[T8C]_[A10C]_T5.1 (ssRNA)
RNA: UCUCUUUGUAUGGCUCUCUCUU
B5: Ic_S1_P5E.1_K5.1_C5.1_H5.1_A5.1_[T5A]_[A7G]_F5.1_[T8G]_[A10T]_T5.1 (ssRNA)
RNA: UCUCUUUGUAAUGGUUUCUCUU
B6: Ic_S1_P5E.1_K5.1_C5.1_H5.1_A5.1_[T6A]_[A7C]_F5.1_[T8G]_[T9G]_[A10C]_T5.1 (ssRNA)
RNA: UCUCUUUGUAUACGGCUCUCUU
B7: Ic_S1_P5E.1_K5.1_C5.1_H5.1_A5.1_[T5A]_[T6G]_[A7T]_F5.1_[T8A]_[T9A]_T5.1 (ssRNA)
RNA: UCUCUUUGUAAGUAAAUCUCUU
B8: Ic_S1_P5E.1_K5.1_C5.1_H5.1_A5.1_[T6A]_[A7T]_F5.1_[T8A]_[T9A]_[A10T]_T5.1 (ssRNA)
RNA: UCUCUUUGUAUAUAAUUCUCUU
B9: Ic_S1_P5E.1_K5.1_C5.1_H5.1_A5.1_[T5G]_[T6C]_[A7C]_F5.1_[T9C]_T5.1 (ssRNA)
RNA: UCUCUUUGUAGCCUCAUCUCUU
B10: Ic_S1_P5E.1_K5.1_C5.1_H5.1_A5.1_[T5A]_[T6A]_[A7T]_F5.1_[T8A]_[A10C]_T5.1 (ssRNA)
RNA: UCUCUUUGUAAAUAUCUCUCUU
B11: Ic_S1_P5E.1_K5.1_C5.1_H5.1_A5.1_[T5A]_[T6A]_[A7T]_F5.1_[T8C]_[T9C]_[A10C]_T5.1 (ssRNA)
RNA: UCUCUUUGUAAAUCCCUCUCUU
B12: Ic_S1_P5E.1_K5.1_C5.1_H5.1_A5.1_[T6C]_[A7C]_F5.1_[T8A]_[T9G]_[A10C]_T5.1 (ssRNA)
RNA: UCUCUUUGUAUCCAGCUCUCUU
B13: Ic_S1_P5E.1_K5.1_C5.1_H5.1_A5.1_[T5C]_[T6C]_[A7T]_F5.1_[T8A]_[A10T]_T5.1 (ssRNA)
RNA: UCUCUUUGUACCUAUUUCUCUU
B14: Ib_S1_P3E.1_K3.1_C3.1_H3.1_[T1G]_A3.1_[A6G]_F3.1_T3.1 (ssRNA)
RNA: UCUCUUGGUAUGUAUCUCUU
B15: Ic_S1_P5E.1_K5.1_C5.1_H5.1_A5.1_[T6C]_[A7G]_F5.1_[T8C]_[A10G]_T5.1 (ssRNA)
RNA: UCUCUUUGUAUCGCUGUCUCUU
B16: Ic_S1_P5E.1_K5.1_C5.1_H5.1_A5.1_[T5A]_[A7G]_F5.1_[T8G]_[A10C]_T5.1 (ssRNA)
RNA: UCUCUUUGUAAUGGUCUCUCUU
B17: Ic_S1_P5E.1_K5.1_C5.1_H5.1_A5.1_[A7G]_F5.1_[T8C]_[T9C]_[A10T]_T5.1 (ssRNA)
RNA: UCUCUUUGUAUUGCCUUCUCUU
B18: Ic_S1_P5E.1_K5.1_C5.1_H5.1_A5.1_[T5A]_[T6C]_[A7C]_F5.1_[T8G]_T5.1 (ssRNA)
RNA: UCUCUUUGUAACCGUAUCUCUU
B19: Ic_S1_P5E.1_K5.1_C5.1_H5.1_A5.1_[T6A]_[A7C]_F5.1_[T8C]_[T9G]_[A10G]_T5.1 (ssRNA)
RNA: UCUCUUUGUAUACCGGUCUCUU
B20: Ic_S1_P5E.1_K5.1_C5.1_H5.1_A5.1_[T5C]_[T6G]_[A7T]_F5.1_[T8G]_[T9C]_[A10T]_T5.1 (ssRNA)
RNA: UCUCUUUGUACGUGCUUCUCUU
B21: Ic_S1_P5E.1_K5.1_C5.1_H5.1_A5.1_[T6A]_[A7T]_F5.1_[T8G]_[T9A]_T5.1 (ssRNA)
RNA: UCUCUUUGUAUAUGAAUCUCUU
B22: Ic_S1_P5E.1_K5.1_C5.1_H5.1_A5.1_[T5C]_[A7C]_F5.1_[T8A]_[A10T]_T5.1 (ssRNA)
RNA: UCUCUUUGUACUCAUUUCUCUU
B23: Ic_S1_P5E.1_K5.1_C5.1_H5.1_A5.1_[T6C]_[A7C]_F5.1_[T8A]_[A10T]_T5.1 (ssRNA)
RNA: UCUCUUUGUAUCCAUUUCUCUU
B24: Ic_S1_P5E.1_K5.1_C5.1_H5.1_A5.1_[T6C]_[A7C]_F5.1_[T8A]_[T9G]_[A10T]_T5.1 (ssRNA)
RNA: UCUCUUUGUAUCCAGUUCUCUU
B25: Ic_S1_P5E.1_K5.1_C5.1_H5.1_A5.1_[T5G]_[A7T]_F5.1_[T9A]_[A10T]_T5.1 (ssRNA)
RNA: UCUCUUUGUAGUUUAUUCUCUU
B26: Ib_S1_P3E.1_K3.1_C3.1_H3.1_[T1C]_A3.1_[T5C]_F3.1_T3.1 (ssRNA)
RNA: UCUCUUCGUACAUAUCUCUU
B27: Ic_S1_P5E.1_K5.1_C5.1_H5.1_A5.1_[T6C]_F5.1_[T8A]_[A10G]_T5.1 (ssRNA)
RNA: UCUCUUUGUAUCAAUGUCUCUU
B28: Ic_S1_P5E.1_K5.1_C5.1_H5.1_A5.1_[T6C]_[A7G]_F5.1_[T8A]_[A10G]_T5.1 (ssRNA)
RNA: UCUCUUUGUAUCGAUGUCUCUU
B29: Ic_S1_P5E.1_K5.1_C5.1_H5.1_A5.1_[T6G]_[A7T]_F5.1_[A10C]_T5.1 (ssRNA)
RNA: UCUCUUUGUAUGUUUCUCUCUU
B30: Ic_S1_P5E.1_K5.1_C5.1_H5.1_A5.1_[T5C]_[T6G]_F5.1_[T8C]_[T9C]_T5.1 (ssRNA)
RNA: UCUCUUUGUACGACCAUCUCUU
B31: Ic_S1_P5E.1_K5.1_C5.1_H5.1_A5.1_[T5A]_[T6C]_[A7C]_F5.1_[T8C]_[T9G]_T5.1 (ssRNA)
RNA: UCUCUUUGUAACCCGAUCUCUU
B32: Ic_S1_P5E.1_K5.1_C5.1_H5.1_A5.1_[T6A]_F5.1_[T8A]_[T9C]_[A10G]_T5.1 (ssRNA)
RNA: UCUCUUUGUAUAAACGUCUCUU

Target: T1, PUF4 RNA-binding domain
Assay: Mg; RNA-MaP; 20 mM Na-HEPES pH 7.4, 30 mM KOAc, 0.75 mM MgCl2, 0.1% Tween-20, 5% glycerol, 0.1 mg/mL BSA, 2 mM DTT; 25 C; 0.0125-409.6 nM protein
Conditions: tags: N-His6-TEV cleaved; C-SNAP kept, Cy3B-labelled; label: tethered on chip by stalled RNA polymerase

Binder	Kd
B1	782 nM
B2	470 nM
B3	496 nM
B4	> 2300 nM
B5	1060 nM
B6	460 nM
B7	2150 nM
B8	4.21 nM
B9	721 nM
B10	27.1 nM
B11	240 nM
B12	1300 nM
B13	48.7 nM
B14	723 nM
B15	978 nM
B16	1800 nM

Binder	Kd
B17	652 nM
B18	52.9 nM
B19	470 nM
B20	297 nM
B21	19.4 nM
B22	119 nM
B23	119 nM
B24	1040 nM
B25	15.2 nM
B26	1050 nM
B27	354 nM
B28	859 nM
B29	47 nM
B30	1000 nM
B31	1950 nM
B32	378 nM
